Results on five molecules are retold here after patent US20120135923A1 (IPSEN PHARMA S A S, published 2012).

Holding throughout (test): [125I]-NDP-α-MSH competition, membranes
Assay [1] concerns the target T1, human melanocortin receptor subtype 5 (hMC5-R) (human, UniProt P33032 1-325).
T1 construct: whole, on cells; membranes of CHO-K1 cells

Assay [2] concerns the target T2, human melanocortin receptor subtype 3 (hMC3-R) (human, UniProt P41968 1-323).
T2 construct: whole, on cells; membranes of CHO-K1 cells

In assay [3] the target is T3, human melanocortin receptor subtype 4 (hMC4-R) (human, UniProt P32245 1-332).
T3 construct: whole, on cells; membranes of CHO-K1 cells

For assay [4], the target named is T4, human melanocortin receptor subtype 1 (hMC1-R) (human, UniProt Q01726 1-317).
T4 construct: whole, on cells; membranes of CHO-K1 cells

Bridge positions count the residues as written; N and C are the ends. Square brackets hold non-standard residues; d marks the D form. 1Nal = N[C@@H](Cc1cccc2ccccc12)C(=O)O; 2Nal = N[C@@H](Cc1ccc2ccccc2c1)C(=O)O; d2Nal = N[C@H](Cc1ccc2ccccc2c1)C(=O)O; Bta = N[C@@H](Cc1csc2ccccc12)C(=O)O; βAla = NCCC(=O)O

T3 sequence (P32245 whole entry): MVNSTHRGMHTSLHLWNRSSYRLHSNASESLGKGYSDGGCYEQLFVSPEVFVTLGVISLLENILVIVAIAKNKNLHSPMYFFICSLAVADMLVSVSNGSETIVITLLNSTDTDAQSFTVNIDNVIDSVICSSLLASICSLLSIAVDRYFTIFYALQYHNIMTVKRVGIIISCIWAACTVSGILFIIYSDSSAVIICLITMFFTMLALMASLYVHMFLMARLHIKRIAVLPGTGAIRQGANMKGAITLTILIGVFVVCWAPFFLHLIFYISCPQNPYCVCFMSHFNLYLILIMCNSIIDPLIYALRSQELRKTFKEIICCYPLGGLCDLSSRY
T2 sequence (P41968 whole entry): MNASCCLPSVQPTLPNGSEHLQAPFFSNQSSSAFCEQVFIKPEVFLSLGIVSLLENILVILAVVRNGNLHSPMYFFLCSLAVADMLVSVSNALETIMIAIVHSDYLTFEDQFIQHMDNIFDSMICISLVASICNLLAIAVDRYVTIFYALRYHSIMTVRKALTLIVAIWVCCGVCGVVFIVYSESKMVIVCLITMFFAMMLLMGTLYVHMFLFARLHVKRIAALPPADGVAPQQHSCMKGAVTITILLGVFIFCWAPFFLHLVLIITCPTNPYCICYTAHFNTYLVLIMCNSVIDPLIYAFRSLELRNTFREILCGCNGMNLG
T4 sequence (Q01726 whole entry): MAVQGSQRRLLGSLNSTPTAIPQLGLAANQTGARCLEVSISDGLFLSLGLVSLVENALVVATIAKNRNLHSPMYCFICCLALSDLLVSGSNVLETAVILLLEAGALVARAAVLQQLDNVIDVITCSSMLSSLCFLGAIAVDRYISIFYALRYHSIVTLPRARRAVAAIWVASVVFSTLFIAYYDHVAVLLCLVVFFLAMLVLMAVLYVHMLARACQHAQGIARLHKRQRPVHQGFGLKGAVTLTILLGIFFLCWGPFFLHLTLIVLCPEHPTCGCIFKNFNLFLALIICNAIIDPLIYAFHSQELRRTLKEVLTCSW
T1 sequence (P33032 whole entry): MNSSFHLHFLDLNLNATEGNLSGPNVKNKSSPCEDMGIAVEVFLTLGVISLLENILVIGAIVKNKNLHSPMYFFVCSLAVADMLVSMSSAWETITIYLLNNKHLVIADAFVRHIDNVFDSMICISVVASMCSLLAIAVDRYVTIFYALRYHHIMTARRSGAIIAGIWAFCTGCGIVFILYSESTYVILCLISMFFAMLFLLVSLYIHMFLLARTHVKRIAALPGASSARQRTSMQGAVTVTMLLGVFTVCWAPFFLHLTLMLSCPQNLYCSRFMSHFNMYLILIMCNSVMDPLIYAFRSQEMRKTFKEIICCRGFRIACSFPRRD

As a reminder, the Ki is a dissociation constant, usually derived from enzyme kinetics or from competition with a known ligand. On to Ac-CEH[d2Nal]R[Bta]ACPPKD[βAla]GRRRRRQRRR-NH2 (disulfide 1-8), for which the Ki in assay [1] is 165 nM; in assay [2], 15.9 nM; in assay [3] it was 0.95 nM; in assay [4], 12.8 nM.
Turning to Ac-CEH[d2Nal]R[1Nal]ACPPKD[βAla]RRRRRRQRRR-NH2 (disulfide 1-8) [Ac-c(Cys-Glu-His-D-2-Nal-Arg-1-Nal-Ala-Cys)-Pro-Pro-Lys-Asp-β-[…]NH2], the Ki was 88.8 nM in assay [1], 19.3 nM in assay [2], 0.819 nM in assay [3] and 6.66 nM in assay [4].

B1: Ac-c(Cys-Glu-His-D-2-Nal-Arg-2-Nal-Ala-Cys)-Pro-Pro-Lys-Asp-β-[…]NH2 (peptide)
peptide: Ac-CEH[d2Nal]R[2Nal]ACPPKD[βAla]RKRRRQRRR-NH2
modifications: disulfide 1-8
SMILES: CC(=O)N[C@H]1CSSC[C@@H](C(=O)N2CCC[C@H]2C(=O)N2CCC[C@H]2C(=O)N[C@@H](CCCCN)C(=O)N[C@@H](CC(=O)O)C(=O)NCCC(=O)N[C@@H](CCCNC(=N)N)C(=O)N[C@@H](CCCCN)C(=O)N[C@@H](CCCNC(=N)N)C(=O)N[C@@H](CCCNC(=N)N)C(=O)N[C@@H](CCCNC(=N)N)C(=O)N[C@@H](CCC(N)=O)C(=O)N[C@@H](CCCNC(=N)N)C(=O)N[C@@H](CCCNC(=N)N)C(=O)N[C@@H](CCCNC(=N)N)C(N)=O)NC(=O)[C@H](C)NC(=O)[C@H](Cc2ccc3ccccc3c2)NC(=O)[C@H](CCCNC(=N)N)NC(=O)[C@@H](Cc2ccc3ccccc3c2)NC(=O)[C@H](Cc2c[nH]cn2)NC(=O)[C@H](CCC(=O)O)NC1=O
Take B1: the Ki in assay [1] was 2.77 nM; in assay [2], 0.62 nM; in assay [3], 0.303 nM; in assay [4] it was 2.25 nM.

B2: Ac-c(Cys-Glu-His-D-2-Nal-Arg-Bal-Ala-Cys)-Pro-Pro-Arg-Asp-β-[…]NH2 (peptide)
peptide: Ac-CEH[d2Nal]R[Bta]ACPPRD[βAla]RRRRRQRRR-NH2
modifications: disulfide 1-8
SMILES: CC(=O)N[C@H]1CSSC[C@@H](C(=O)N2CCC[C@H]2C(=O)N2CCC[C@H]2C(=O)N[C@@H](CCCNC(=N)N)C(=O)N[C@@H](CC(=O)O)C(=O)NCCC(=O)N[C@@H](CCCNC(=N)N)C(=O)N[C@@H](CCCNC(=N)N)C(=O)N[C@@H](CCCNC(=N)N)C(=O)N[C@@H](CCCNC(=N)N)C(=O)N[C@@H](CCCNC(=N)N)C(=O)N[C@@H](CCC(N)=O)C(=O)N[C@@H](CCCNC(=N)N)C(=O)N[C@@H](CCCNC(=N)N)C(=O)N[C@@H](CCCNC(=N)N)C(N)=O)NC(=O)[C@H](C)NC(=O)[C@H](Cc2csc3ccccc23)NC(=O)[C@H](CCCNC(=N)N)NC(=O)[C@@H](Cc2ccc3ccccc3c2)NC(=O)[C@H](Cc2c[nH]cn2)NC(=O)[C@H](CCC(=O)O)NC1=O
Turning to B2, the Ki was determined as 48.3 nM in assay [1], 7.26 nM in assay [2], 0.302 nM in assay [3] and 4.11 nM in assay [4].

B3: Ac-c(Cys-Glu-His-D-2-Nal-Arg-Bal-Ala-Cys)-Pro-Pro-Lys-Asp-β-[…]NH2 (peptide)
peptide: Ac-CEH[d2Nal]R[Bta]ACPPKD[βAla]RKRRRQRRR-NH2
modifications: disulfide 1-8
SMILES: CC(=O)N[C@H]1CSSC[C@@H](C(=O)N2CCC[C@H]2C(=O)N2CCC[C@H]2C(=O)N[C@@H](CCCCN)C(=O)N[C@@H](CC(=O)O)C(=O)NCCC(=O)N[C@@H](CCCNC(=N)N)C(=O)N[C@@H](CCCCN)C(=O)N[C@@H](CCCNC(=N)N)C(=O)N[C@@H](CCCNC(=N)N)C(=O)N[C@@H](CCCNC(=N)N)C(=O)N[C@@H](CCC(N)=O)C(=O)N[C@@H](CCCNC(=N)N)C(=O)N[C@@H](CCCNC(=N)N)C(=O)N[C@@H](CCCNC(=N)N)C(N)=O)NC(=O)[C@H](C)NC(=O)[C@H](Cc2csc3ccccc23)NC(=O)[C@H](CCCNC(=N)N)NC(=O)[C@@H](Cc2ccc3ccccc3c2)NC(=O)[C@H](Cc2c[nH]cn2)NC(=O)[C@H](CCC(=O)O)NC1=O
As to B3, the Ki in assay [1] was 15.5 nM; in assay [2], 1.95 nM; in assay [3] it was 0.575 nM; in assay [4], 3.28 nM.
